Experiments:
[1] = molecular target: FbxwD-FLAG (endogenous locus tagged) (D. discoideum); test: co-IP; FbxwD-FLAG precipitated with anti-FLAG M2 magnetic beads from S21 lysates of phyA+ or phyA– vegetative or slug cells, 4 °C 1 h; Skp1 detected by Western blot (pAb UOK77), densitometry
[2] = molecular target: JcdI-FLAG (endogenous locus tagged) (D. discoideum) (UniProt Q55CL5); test: co-IP; FLAG-JcdI or JcdI-FLAG precipitated with anti-FLAG M2 beads from NP-40 lysates of vegetative or slug cells, 4 °C 1 h, washed in 50 mM Tris-HCl pH 8.0, 150 mM NaCl, 0.2% NP-40; Skp1 detected by Western blot
UniProt Q55CL5, sequence (Q55CL5 entry or part of it): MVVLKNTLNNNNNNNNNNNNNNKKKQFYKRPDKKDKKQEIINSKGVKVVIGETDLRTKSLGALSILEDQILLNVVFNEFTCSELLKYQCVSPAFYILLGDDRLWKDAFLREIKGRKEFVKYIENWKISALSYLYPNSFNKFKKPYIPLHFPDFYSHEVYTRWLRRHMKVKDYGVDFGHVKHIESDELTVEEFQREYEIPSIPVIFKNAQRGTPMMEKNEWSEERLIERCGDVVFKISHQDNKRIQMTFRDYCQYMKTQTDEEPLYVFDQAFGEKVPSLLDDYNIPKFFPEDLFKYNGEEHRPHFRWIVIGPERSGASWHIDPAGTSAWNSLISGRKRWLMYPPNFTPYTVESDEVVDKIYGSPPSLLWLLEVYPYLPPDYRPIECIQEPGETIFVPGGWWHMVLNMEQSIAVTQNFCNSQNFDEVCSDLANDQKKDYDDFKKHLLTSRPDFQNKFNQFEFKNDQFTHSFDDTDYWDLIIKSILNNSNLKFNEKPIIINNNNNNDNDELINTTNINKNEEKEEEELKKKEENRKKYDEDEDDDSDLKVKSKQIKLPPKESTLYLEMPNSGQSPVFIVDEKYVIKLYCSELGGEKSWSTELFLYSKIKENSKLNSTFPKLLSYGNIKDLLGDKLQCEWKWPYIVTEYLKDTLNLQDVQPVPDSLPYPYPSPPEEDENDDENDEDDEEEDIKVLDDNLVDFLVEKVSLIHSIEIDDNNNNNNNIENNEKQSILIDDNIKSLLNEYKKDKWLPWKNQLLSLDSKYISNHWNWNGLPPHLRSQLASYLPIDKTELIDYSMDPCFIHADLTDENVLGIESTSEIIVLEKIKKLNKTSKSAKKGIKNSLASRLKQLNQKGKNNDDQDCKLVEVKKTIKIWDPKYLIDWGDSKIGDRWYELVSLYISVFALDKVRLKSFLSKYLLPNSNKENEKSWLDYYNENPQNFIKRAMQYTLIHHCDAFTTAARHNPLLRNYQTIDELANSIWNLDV

fold more Skp1 co-IPed with FbxwD-FLAG, phyA+ versus phyA– slug cells [1]: 4 fold
fold more Skp1 co-IPed with FbxwD-FLAG, phyA+ versus phyA– vegetative cells [1]: 2.5 fold
fold more Skp1 (Skp1:JcdI ratio) co-IPed with JcdI-FLAG, gnt1+ versus gnt1– vegetative cells [2]: 2 fold
fold preferential interaction with JcdI-FLAG, gnt1+ versus gnt1– slug cells [2]: 2 fold
Substance: Skp1 (endogenous, from phyA+ / gnt1+ cells; hydroxylated and glycosylated) (from UniProt P52285 1-162) (natural protein)

From PMC9485057
